Literature values in article PMC3131494.
pKd: −log10 of the molar value.

Target: eNOS (UniProt P29474)
Chain of UniProt P29474 (P29474 2-1203): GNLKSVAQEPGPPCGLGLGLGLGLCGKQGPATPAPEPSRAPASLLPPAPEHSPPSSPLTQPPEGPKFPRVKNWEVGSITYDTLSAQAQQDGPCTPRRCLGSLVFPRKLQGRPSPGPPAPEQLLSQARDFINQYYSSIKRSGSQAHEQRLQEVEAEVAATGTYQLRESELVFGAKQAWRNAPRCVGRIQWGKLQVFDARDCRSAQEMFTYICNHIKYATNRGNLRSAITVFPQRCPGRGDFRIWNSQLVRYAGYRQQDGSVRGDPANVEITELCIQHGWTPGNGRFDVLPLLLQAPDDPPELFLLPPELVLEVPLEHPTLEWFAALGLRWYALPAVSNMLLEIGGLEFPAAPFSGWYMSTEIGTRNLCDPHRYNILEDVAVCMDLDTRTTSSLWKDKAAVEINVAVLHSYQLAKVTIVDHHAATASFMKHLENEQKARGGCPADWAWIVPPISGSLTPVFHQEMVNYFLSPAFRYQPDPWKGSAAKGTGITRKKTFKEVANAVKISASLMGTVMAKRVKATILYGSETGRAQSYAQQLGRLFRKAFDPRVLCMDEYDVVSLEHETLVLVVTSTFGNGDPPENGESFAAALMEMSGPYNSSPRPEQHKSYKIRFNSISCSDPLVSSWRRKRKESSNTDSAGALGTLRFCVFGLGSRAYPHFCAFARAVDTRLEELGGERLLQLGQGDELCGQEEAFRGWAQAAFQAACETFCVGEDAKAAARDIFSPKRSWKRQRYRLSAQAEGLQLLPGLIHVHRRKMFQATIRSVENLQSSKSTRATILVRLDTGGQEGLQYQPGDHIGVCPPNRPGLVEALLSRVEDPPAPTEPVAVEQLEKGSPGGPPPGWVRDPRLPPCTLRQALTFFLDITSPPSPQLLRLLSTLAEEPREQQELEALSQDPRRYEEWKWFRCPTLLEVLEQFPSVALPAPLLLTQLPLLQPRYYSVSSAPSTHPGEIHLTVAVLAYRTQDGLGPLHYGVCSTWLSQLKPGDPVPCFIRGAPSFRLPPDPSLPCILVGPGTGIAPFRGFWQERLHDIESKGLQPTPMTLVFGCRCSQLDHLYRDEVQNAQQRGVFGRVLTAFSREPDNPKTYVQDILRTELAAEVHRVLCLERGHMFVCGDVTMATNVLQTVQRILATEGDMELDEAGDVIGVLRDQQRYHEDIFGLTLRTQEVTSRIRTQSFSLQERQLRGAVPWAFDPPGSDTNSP

- pKd: 7.52
Substance: dynamin (from UniProt P50570)
